Test results as given in patent US6090381.

How the values were obtained:
[1] = molecular target: target antigen of the LL2 antibody (not given); assay: ELISA, calculated from ID50 values; coated reagent not named
[2] = molecular target: target antigen of the LL2 antibody (not given); assay: competitive binding assay, F(ab')2; competitor and antigen not named; design: unit not given beside the values
[3] = molecular target: target antigen of the LL2 antibody (not given); assay: cell surface binding assay, calculated from the ID50 values; cells not named
[4] = molecular target: target antigen of the LL2 antibody (not given); assay: competitive binding assay, F(ab')2; from the ID50 against unmodified control F(ab')2

| Immunoreactivity (%), ELISA [1] | ID50 [2] | Immunoreactivity (%), Cell Binding [3] | Immunoreactivity, % of hLL2 [4] | Substance |
| --- | --- | --- | --- | --- |
| 100% | 0.384 | 100% | 100% | F(ab')2 fragment of hLL2 (antibody) |
| 42.2% |  | 41.9% |  | dextran-doxorubicin-conjugated F(ab')2 fragment of hLL2 (antibody) |
